Target: T1, hPolη (human DNA polymerase eta) (Homo sapiens, UniProt Q9Y253 1-713)
T1 sequence: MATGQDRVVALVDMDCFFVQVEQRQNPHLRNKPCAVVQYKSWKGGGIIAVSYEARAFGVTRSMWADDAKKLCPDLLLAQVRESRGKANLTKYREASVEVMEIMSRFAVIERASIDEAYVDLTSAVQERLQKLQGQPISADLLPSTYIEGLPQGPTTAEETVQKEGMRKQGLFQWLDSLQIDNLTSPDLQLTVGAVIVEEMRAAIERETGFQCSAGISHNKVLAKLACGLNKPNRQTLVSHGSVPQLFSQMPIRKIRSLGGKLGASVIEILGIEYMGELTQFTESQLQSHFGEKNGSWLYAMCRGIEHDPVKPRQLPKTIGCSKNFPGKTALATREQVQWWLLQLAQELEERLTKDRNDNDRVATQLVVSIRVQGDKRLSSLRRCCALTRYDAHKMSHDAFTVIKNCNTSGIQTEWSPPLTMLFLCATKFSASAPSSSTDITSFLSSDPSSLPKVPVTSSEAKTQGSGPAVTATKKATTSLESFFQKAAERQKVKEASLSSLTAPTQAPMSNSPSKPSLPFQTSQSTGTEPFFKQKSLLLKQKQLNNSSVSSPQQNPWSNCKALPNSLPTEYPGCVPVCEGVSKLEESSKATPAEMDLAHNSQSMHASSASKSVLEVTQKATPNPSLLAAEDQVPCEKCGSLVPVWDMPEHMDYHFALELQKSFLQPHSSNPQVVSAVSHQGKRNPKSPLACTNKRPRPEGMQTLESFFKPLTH
Experiment: EMSA

| Binder | Kd |
| --- | --- |
| 18/26-mer (dsDNA) DNA 1: AACGACGGCCAGTGAATT DNA 2: CCCGCGCGAATTCACTGGCCGTCGTT | 28 ± 3 nM |
| 19/26-mer (dsDNA) DNA 1: AACGACGGCCAGTGAATTC DNA 2: CCCGCGCGAATTCACTGGCCGTCGTT | 25 ± 5 nM |
| 20/26-mer (dsDNA) DNA 1: AACGACGGCCAGTGAATTCG DNA 2: CCCGCGCGAATTCACTGGCCGTCGTT | 23 ± 2 nM |
| 21/26-mer (dsDNA) DNA 1: AACGACGGCCAGTGAATTCGC DNA 2: CCCGCGCGAATTCACTGGCCGTCGTT | 26 ± 1 nM |
| 22/26-mer (dsDNA) DNA 1: AACGACGGCCAGTGAATTCGCG DNA 2: CCCGCGCGAATTCACTGGCCGTCGTT | 17 ± 6 nM |
| 18/26-mer-dGC8-N-ABA (dsDNA, template dG at position 21 from 3' end (6 from 5' end) is N-(2'-deoxyguanosin-8-yl)-3-aminobenzanthrone) DNA 1: AACGACGGCCAGTGAATT DNA 2: CCCGCGCGAATTCACTGGCCGTCGTT | 32 ± 5 nM |
| 19/26-mer-dGC8-N-ABA (dsDNA, template dG at position 21 from 3' end (6 from 5' end) is N-(2'-deoxyguanosin-8-yl)-3-aminobenzanthrone) DNA 1: AACGACGGCCAGTGAATTC DNA 2: CCCGCGCGAATTCACTGGCCGTCGTT | 12 ± 2 nM |
| 20/26-mer-dGC8-N-ABA (dsDNA, template dG at position 21 from 3' end (6 from 5' end) is N-(2'-deoxyguanosin-8-yl)-3-aminobenzanthrone) DNA 1: AACGACGGCCAGTGAATTCG DNA 2: CCCGCGCGAATTCACTGGCCGTCGTT | 12 ± 2 nM |
| 21/26-mer-dGC8-N-ABA (dsDNA, template dG at position 21 from 3' end (6 from 5' end) is N-(2'-deoxyguanosin-8-yl)-3-aminobenzanthrone) DNA 1: AACGACGGCCAGTGAATTCGC DNA 2: CCCGCGCGAATTCACTGGCCGTCGTT | 26 ± 7 nM |
| 22/26-mer-dGC8-N-ABA (dsDNA, template dG at position 21 from 3' end (6 from 5' end) is N-(2'-deoxyguanosin-8-yl)-3-aminobenzanthrone) DNA 1: AACGACGGCCAGTGAATTCGCG DNA 2: CCCGCGCGAATTCACTGGCCGTCGTT | 24 ± 4 nM |

Source: article PMC5048595
